For two sequences, Kd results are on record in article PMC10966536.

The data set deals with NmPAL (PAS-ANTAR-LOV photoreceptor) (Nakamurella multipartita). The experiment in a line: fluorescence anisotropy. As to conditions: FA: 4 nM RNA, 12 mM HEPES/HCl pH 7.7, 135 mM KCl, 10 mM NaCl, 1 mM MgCl2, 10% w/v glycerol, 100 ug/mL BSA, dark, or after 60 s blue light (465 nm), temperature …. In general terms: Polarisation of emitted light reports the rotation of a fluorescent probe.

The term Kd denotes the constant that tells how readily two partners part at equilibrium. A lower Kd goes with tighter binding. Turning to ACCUUCGGUUCAGCUGCGAGCCG [58.M21, TAMRA], under “blue light, text says 83-fold reduced”, the Kd came to 250 nM.
Consider “ACCUUCGGUUCAGCAGCGAGCCG [58 (motif 3), TAMRA]”, for which the Kd (blue light, two-site fit, high-affinity site (second transition micromolar)) was 3.5 nM and the Kd (darkness, text elsewhere calls this micromolar binding) is > 3000 nM.
